Measurements from patent US20150260731A1.
pEC50, pKd: −log10 of the molar value.

Experiments:
Aβ1-20 = assay: solution-based binding assay, free antibody by ELISA, GRAFIT fit
[1] = molecular target: amyloid β-derived diffusible ligands (ADDLs), oligomers of Aβ1-42; assay: ELISA, IgG2
Aβ1-40 monomer [2] = assay: BIACORE (SPR)
[3] = molecular target: amyloid β-derived diffusible ligands (ADDLs), oligomers of Aβ1-42; assay: BIACORE (SPR)
Aβ1-40 monomer [4] = assay: KINEXA, equilibrium in solution
[5] = molecular target: amyloid β-derived diffusible ligands (ADDLs), oligomers of Aβ1-42; assay: KINEXA, equilibrium in solution
[6] = molecular target: amyloid β-derived diffusible ligands (ADDLs), oligomers of Aβ1-42; assay: competitive ELISA (ratio of the two EC50)
Aβ1-40 monomer [7] = assay: ELISA on coated antigen; antibody at 0 timepoint
Aβ1-40 monomer [8] = assay: sandwich ELISA on ERENNA, 19.3 capture, 7305 detection
Aβ1-40 monomer [9] = assay: sandwich ELISA on ERENNA, 19.3 capture, 82E1 detection
Aβ1-40 monomer [10] = assay: ELISA on coated antigen; antibody kept at 4° for 1 month
Aβ1-40 monomer [11] = assay: ELISA on coated antigen; antibody kept at 25° for 1 month
Aβ1-40 monomer [12] = assay: ELISA on coated antigen; antibody kept at 40° for 1 month
Aβ1-40 monomer [13] = assay: one-sided ELISA, plate coated with Aβ1-40 100 pmol/well (FIG. 5A)
[14] = molecular target: amyloid β-derived diffusible ligands (ADDLs), oligomers of Aβ1-42; assay: one-sided ELISA, plate coated with Aβ oligomers 50 pmol/well (FIG. 5A)
[15] = molecular target: amyloid β-derived diffusible ligands (ADDLs), oligomers of Aβ1-42; assay: sandwich ELISA on ERENNA, 19.3 on beads as capture, labelled 7305 as detection; ADDLs 0.19 pM in standards diluent
[16] = molecular target: amyloid β-derived diffusible ligands (ADDLs), oligomers of Aβ1-42; assay: sandwich ELISA on ERENNA, 19.3 on beads as capture, labelled 7305 as detection; ADDLs 0.56 pM in standards diluent
[17] = molecular target: amyloid β-derived diffusible ligands (ADDLs), oligomers of Aβ1-42; assay: sandwich ELISA on ERENNA, 19.3 on beads as capture, labelled 7305 as detection; ADDLs 1.67 pM in standards diluent
[18] = molecular target: amyloid β-derived diffusible ligands (ADDLs), oligomers of Aβ1-42; assay: sandwich ELISA on ERENNA, 19.3 on beads as capture, labelled 7305 as detection; ADDLs 5.00 pM in standards diluent

Chain of Aβ1-20 (peptide, as listed by the source): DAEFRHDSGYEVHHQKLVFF

pKd (Aβ1-20)	pEC50 [1]	pKd (Aβ1-40 monomer [2])	pKd [3]	pKd (Aβ1-40 monomer [4])	pKd [5]	affinity for Aβ1-42 oligomers compared to Aβ1-40 monomers [6]	pEC50 (Aβ1-40 monomer [7])	Aβ40 monomer Cross Reactivity (Aβ1-40 monomer [8]) [%]	Aβ40 monomer Cross Reactivity (Aβ1-40 monomer [9]) [%]	pEC50 (Aβ1-40 monomer [10])	pEC50 (Aβ1-40 monomer [11])	pEC50 (Aβ1-40 monomer [12])	pEC50 (Aβ1-40 monomer [13])	pEC50 [14]	DE Mean (detected events mean) (detected events) [15]	DE Mean (detected events mean) (detected events) [16]	DE Mean (detected events mean) (detected events) [17]	DE Mean (detected events mean) (detected events) [18]	Substance
7.72	–	–	–	–	–	–	–	–	–	–	–	–	–	–	–	–	–	–	WO-2 (antibody)
–	9.10	6.82	8.32	7.78	8.57	630	8.00	0.02	0.04	7.79	7.66	7.05	8.37	8.80	324	691	1940	5580	anti-ADDL antibody 19.3
